Data on eight molecules can be found in US20230322953A1 (HARBOUR BIOMED SHANGHAI, published 2023).

B1: PR003867 (bispecific antibody, human IgG1, lambda, L234A L235A)
light: QAVVTQEPSLTVSPGGTVTLTCRSSTGAVTTSNYANWVQQKPGQAPRGLIGGTNKRAPWTPARFSGSLLGDKAALTLLGAQPEDEAEYFCALWYSNLWVFGGGTKLTVLGQPKAAPSVTLFPPSSEELQANKATLVCLISDFYPGAVTVAWKADSSPVKAGVETTTPSKQSNNKYAASSYLSLTPEQWKSHRSYSCQVTHEGSTVEKTVAPTECS
heavy: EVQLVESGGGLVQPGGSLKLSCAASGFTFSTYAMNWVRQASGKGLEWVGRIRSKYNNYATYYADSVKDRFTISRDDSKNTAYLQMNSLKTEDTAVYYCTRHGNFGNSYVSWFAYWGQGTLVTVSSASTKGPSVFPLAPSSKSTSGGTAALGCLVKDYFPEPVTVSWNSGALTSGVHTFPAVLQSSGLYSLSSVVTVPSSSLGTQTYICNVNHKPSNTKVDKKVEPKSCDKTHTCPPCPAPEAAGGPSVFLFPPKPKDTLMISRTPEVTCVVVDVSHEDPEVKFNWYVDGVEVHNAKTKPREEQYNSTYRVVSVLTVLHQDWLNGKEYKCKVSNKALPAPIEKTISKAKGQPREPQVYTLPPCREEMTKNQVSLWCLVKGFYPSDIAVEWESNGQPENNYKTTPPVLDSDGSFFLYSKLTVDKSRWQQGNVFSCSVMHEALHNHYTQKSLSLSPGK
chain: EVQLVETGGGLIQPGGSLRLSCAASGFTVSDNYMTWVRQAPGKGLEWVSVIFSGGKTYYADSVKGRFTISRDNAKNTLYLQMNSLRAEDTALYYCARRNYDDTRGTDVFDIWGQGTMVTVSSASEPKSSDKTHTCPPCPAPEAAGGPSVFLFPPKPKDTLMISRTPEVTCVVVDVSHEDPEVKFNWYVDGVEVHNAKTKPREEQYNSTYRVVSVLTVLHQDWLNGKEYKCKVSNKALPAPIEKTISKAKGQPREPQVCTLPPSREEMTKNQVSLSCAVKGFYPSDIAVEWESNGQPENNYKTTPPVLDSDGSFFLVSKLTVDKSRWQQGNVFSCSVMHEALHNHYTQKSLSLSPGK
notes: BCMAxCD3, Fab-Fc-VH (structure 11); CD3 Fab of PR003886, BCMA VH of PR004559; IgG1 knob/hole, LALA
B2: PR003878 (bispecific antibody, human IgG1, lambda, L234A L235A)
light: QAVVTQEPSLTVSPGGTVTLTCRSSTGAVTTSNYANWVQQKPGQAPRGLIGGTNKRAPWTPARFSGSLLGDKAALTLLGAQPEDEAEYFCALWYSNLWVFGGGTKLTVLGQPKAAPSVTLFPPSSEELQANKATLVCLISDFYPGAVTVAWKADSSPVKAGVETTTPSKQSNNKYAASSYLSLTPEQWKSHRSYSCQVTHEGSTVEKTVAPTECS
heavy: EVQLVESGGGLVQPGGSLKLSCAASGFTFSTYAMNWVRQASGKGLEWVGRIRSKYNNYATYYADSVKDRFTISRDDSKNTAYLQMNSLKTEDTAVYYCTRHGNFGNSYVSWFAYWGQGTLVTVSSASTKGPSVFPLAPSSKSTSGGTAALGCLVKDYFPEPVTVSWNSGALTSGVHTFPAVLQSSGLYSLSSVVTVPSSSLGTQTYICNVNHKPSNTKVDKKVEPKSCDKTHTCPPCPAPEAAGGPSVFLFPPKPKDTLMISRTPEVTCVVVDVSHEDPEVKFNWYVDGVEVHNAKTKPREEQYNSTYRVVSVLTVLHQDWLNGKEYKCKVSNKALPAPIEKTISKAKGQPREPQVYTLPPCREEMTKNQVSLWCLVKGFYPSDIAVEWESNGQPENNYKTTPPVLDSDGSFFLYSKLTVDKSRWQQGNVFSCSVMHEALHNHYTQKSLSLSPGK
chain: EVQLVETGGGLIQPGGSLRLSCAASGFTVSDSYMTWVRQAPGKGLEWVSVIFSGGKTYYADSVKGRFTISRDNAKNTLYLQMNSLRAEDTALYYCARRNYDDTRGTDVFDIWGQGTMVTVSSASEPKSSDKTHTCPPCPAPEAAGGPSVFLFPPKPKDTLMISRTPEVTCVVVDVSHEDPEVKFNWYVDGVEVHNAKTKPREEQYNSTYRVVSVLTVLHQDWLNGKEYKCKVSNKALPAPIEKTISKAKGQPREPQVCTLPPSREEMTKNQVSLSCAVKGFYPSDIAVEWESNGQPENNYKTTPPVLDSDGSFFLVSKLTVDKSRWQQGNVFSCSVMHEALHNHYTQKSLSLSPGK
notes: BCMAxCD3, Fab-Fc-VH (structure 11); CD3 Fab of PR003886, BCMA VH of PR004573; IgG1 knob/hole, LALA
B3: PR003875 (bispecific antibody, human IgG1, lambda, L234A L235A)
light: QAVVTQEPSLTVSPGGTVTLTCRSSTGAVTTSNYANWVQQKPGQAPRGLIGGTNKRAPWTPARFSGSLLGDKAALTLLGAQPEDEAEYFCALWYSNLWVFGGGTKLTVLGQPKAAPSVTLFPPSSEELQANKATLVCLISDFYPGAVTVAWKADSSPVKAGVETTTPSKQSNNKYAASSYLSLTPEQWKSHRSYSCQVTHEGSTVEKTVAPTECS
heavy: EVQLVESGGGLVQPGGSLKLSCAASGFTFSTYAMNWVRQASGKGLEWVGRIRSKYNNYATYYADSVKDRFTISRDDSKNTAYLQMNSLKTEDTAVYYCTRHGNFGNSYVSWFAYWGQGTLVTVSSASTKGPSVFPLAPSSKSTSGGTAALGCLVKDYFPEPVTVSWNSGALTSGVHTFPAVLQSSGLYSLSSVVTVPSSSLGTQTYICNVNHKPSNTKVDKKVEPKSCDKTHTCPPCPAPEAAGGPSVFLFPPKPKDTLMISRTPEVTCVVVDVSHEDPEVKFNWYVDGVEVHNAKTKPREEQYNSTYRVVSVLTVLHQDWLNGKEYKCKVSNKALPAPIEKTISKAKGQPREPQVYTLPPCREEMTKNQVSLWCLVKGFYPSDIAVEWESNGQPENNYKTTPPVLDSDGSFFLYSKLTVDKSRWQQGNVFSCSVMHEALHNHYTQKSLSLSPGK
chain: EVQLVETGGGLIQPGGSLRLSCAASGFTVSDAYMTWVRQAPGKGLEWVSVIFSGGRTYYADSVKGRFTISRDNAKNTLYLQMNSLRAEDTALYYCARRNYDQTRGTDVFDIWGQGTMVTVSSASEPKSSDKTHTCPPCPAPEAAGGPSVFLFPPKPKDTLMISRTPEVTCVVVDVSHEDPEVKFNWYVDGVEVHNAKTKPREEQYNSTYRVVSVLTVLHQDWLNGKEYKCKVSNKALPAPIEKTISKAKGQPREPQVCTLPPSREEMTKNQVSLSCAVKGFYPSDIAVEWESNGQPENNYKTTPPVLDSDGSFFLVSKLTVDKSRWQQGNVFSCSVMHEALHNHYTQKSLSLSPGK
notes: BCMAxCD3, Fab-Fc-VH (structure 11); CD3 Fab of PR003886, BCMA VH of PR004570; IgG1 knob/hole, LALA
B4: PR003881 (bispecific antibody, human IgG1, lambda, L234A L235A)
light: QAVVTQEPSLTVSPGGTVTLTCRSSTGAVTTSNYANWVQQKPGQAPRGLIGGTNKRAPWTPARFSGSLLGDKAALTLLGAQPEDEAEYFCALWYSNLWVFGGGTKLTVLGQPKAAPSVTLFPPSSEELQANKATLVCLISDFYPGAVTVAWKADSSPVKAGVETTTPSKQSNNKYAASSYLSLTPEQWKSHRSYSCQVTHEGSTVEKTVAPTECS
heavy: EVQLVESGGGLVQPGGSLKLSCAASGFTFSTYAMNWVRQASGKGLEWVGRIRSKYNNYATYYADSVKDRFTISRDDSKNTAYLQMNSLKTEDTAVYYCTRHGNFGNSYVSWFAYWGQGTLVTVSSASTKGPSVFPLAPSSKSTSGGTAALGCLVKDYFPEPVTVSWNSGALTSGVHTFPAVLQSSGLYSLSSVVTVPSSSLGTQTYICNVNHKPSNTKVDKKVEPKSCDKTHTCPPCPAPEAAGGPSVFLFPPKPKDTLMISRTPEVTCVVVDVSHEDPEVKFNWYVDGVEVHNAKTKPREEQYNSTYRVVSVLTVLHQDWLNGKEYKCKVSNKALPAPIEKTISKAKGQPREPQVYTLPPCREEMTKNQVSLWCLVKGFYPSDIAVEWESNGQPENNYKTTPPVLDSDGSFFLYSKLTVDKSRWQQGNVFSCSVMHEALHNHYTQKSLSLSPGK
chain: EVQLVETGGGLIQPGGSLRLSCAASGFTVSDSYMTWVRQAPGKGLEWVSVIFSGGNTYYADSVKGRFTISRDNAKNTLYLQMNSLRAEDTALYYCARRNYDQTLGTDVFDIWGQGTMVTVSSASEPKSSDKTHTCPPCPAPEAAGGPSVFLFPPKPKDTLMISRTPEVTCVVVDVSHEDPEVKFNWYVDGVEVHNAKTKPREEQYNSTYRVVSVLTVLHQDWLNGKEYKCKVSNKALPAPIEKTISKAKGQPREPQVCTLPPSREEMTKNQVSLSCAVKGFYPSDIAVEWESNGQPENNYKTTPPVLDSDGSFFLVSKLTVDKSRWQQGNVFSCSVMHEALHNHYTQKSLSLSPGK
notes: BCMAxCD3, Fab-Fc-VH (structure 11); CD3 Fab of PR003886, BCMA VH of PR004561; IgG1 knob/hole, LALA
B5: PR003877 (bispecific antibody, human IgG1, lambda, L234A L235A)
light: QAVVTQEPSLTVSPGGTVTLTCRSSTGAVTTSNYANWVQQKPGQAPRGLIGGTNKRAPWTPARFSGSLLGDKAALTLLGAQPEDEAEYFCALWYSNLWVFGGGTKLTVLGQPKAAPSVTLFPPSSEELQANKATLVCLISDFYPGAVTVAWKADSSPVKAGVETTTPSKQSNNKYAASSYLSLTPEQWKSHRSYSCQVTHEGSTVEKTVAPTECS
heavy: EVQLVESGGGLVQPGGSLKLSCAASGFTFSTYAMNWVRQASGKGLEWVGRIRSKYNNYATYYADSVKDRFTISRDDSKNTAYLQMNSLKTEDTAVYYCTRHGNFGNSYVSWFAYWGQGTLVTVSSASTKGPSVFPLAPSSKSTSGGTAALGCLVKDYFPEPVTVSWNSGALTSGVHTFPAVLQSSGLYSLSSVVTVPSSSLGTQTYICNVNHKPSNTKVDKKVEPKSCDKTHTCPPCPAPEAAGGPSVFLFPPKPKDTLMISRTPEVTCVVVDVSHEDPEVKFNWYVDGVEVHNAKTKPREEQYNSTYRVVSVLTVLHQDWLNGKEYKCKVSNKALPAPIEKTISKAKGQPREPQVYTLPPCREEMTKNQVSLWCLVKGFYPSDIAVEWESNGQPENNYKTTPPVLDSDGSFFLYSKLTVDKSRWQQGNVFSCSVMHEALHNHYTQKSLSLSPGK
chain: EVQLVETGGGLIQPGGSLRLSCAASGFTVSDSYMTWVRQAPGKGLEWVSVIFSGGKTYVADSVKGRFTISRDNAKNTLYLQMNSLRAEDTALYYCARRNYDDTRGTDVFDIWGQGTMVTVSSASEPKSSDKTHTCPPCPAPEAAGGPSVFLFPPKPKDTLMISRTPEVTCVVVDVSHEDPEVKFNWYVDGVEVHNAKTKPREEQYNSTYRVVSVLTVLHQDWLNGKEYKCKVSNKALPAPIEKTISKAKGQPREPQVCTLPPSREEMTKNQVSLSCAVKGFYPSDIAVEWESNGQPENNYKTTPPVLDSDGSFFLVSKLTVDKSRWQQGNVFSCSVMHEALHNHYTQKSLSLSPGK
notes: BCMAxCD3, Fab-Fc-VH (structure 11); CD3 Fab of PR003886, BCMA VH of PR004572; IgG1 knob/hole, LALA
B6: PR003873 (bispecific antibody, human IgG1, lambda, L234A L235A)
light: QAVVTQEPSLTVSPGGTVTLTCRSSTGAVTTSNYANWVQQKPGQAPRGLIGGTNKRAPWTPARFSGSLLGDKAALTLLGAQPEDEAEYFCALWYSNLWVFGGGTKLTVLGQPKAAPSVTLFPPSSEELQANKATLVCLISDFYPGAVTVAWKADSSPVKAGVETTTPSKQSNNKYAASSYLSLTPEQWKSHRSYSCQVTHEGSTVEKTVAPTECS
heavy: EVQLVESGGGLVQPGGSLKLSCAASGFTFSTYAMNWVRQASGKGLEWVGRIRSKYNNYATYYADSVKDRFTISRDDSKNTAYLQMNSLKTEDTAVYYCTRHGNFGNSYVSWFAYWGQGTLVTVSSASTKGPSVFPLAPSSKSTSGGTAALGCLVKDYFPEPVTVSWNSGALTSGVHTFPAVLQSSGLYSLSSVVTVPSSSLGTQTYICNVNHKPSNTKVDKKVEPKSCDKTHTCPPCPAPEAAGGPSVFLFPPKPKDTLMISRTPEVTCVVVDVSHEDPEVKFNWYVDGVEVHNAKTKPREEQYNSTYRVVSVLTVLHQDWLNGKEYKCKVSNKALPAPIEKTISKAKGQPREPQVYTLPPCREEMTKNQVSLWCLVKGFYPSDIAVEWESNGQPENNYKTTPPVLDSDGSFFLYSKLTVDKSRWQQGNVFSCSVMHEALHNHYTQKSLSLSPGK
chain: EVQLVETGGGLIQPGGSLRLSCAASGFTVSDAYMTWVRQAPGKGLEWVSVIFSGGRTYVADSVKGRFTISRDNAKNTLYLQMNSLRAEDTALYYCARRNYDDTRGTDVFDIWGQGTMVTVSSASEPKSSDKTHTCPPCPAPEAAGGPSVFLFPPKPKDTLMISRTPEVTCVVVDVSHEDPEVKFNWYVDGVEVHNAKTKPREEQYNSTYRVVSVLTVLHQDWLNGKEYKCKVSNKALPAPIEKTISKAKGQPREPQVCTLPPSREEMTKNQVSLSCAVKGFYPSDIAVEWESNGQPENNYKTTPPVLDSDGSFFLVSKLTVDKSRWQQGNVFSCSVMHEALHNHYTQKSLSLSPGK
notes: BCMAxCD3, Fab-Fc-VH (structure 11); CD3 Fab of PR003886, BCMA VH of PR004568; IgG1 knob/hole, LALA
B7: PR003871 (bispecific antibody, human IgG1, lambda, L234A L235A)
light: QAVVTQEPSLTVSPGGTVTLTCRSSTGAVTTSNYANWVQQKPGQAPRGLIGGTNKRAPWTPARFSGSLLGDKAALTLLGAQPEDEAEYFCALWYSNLWVFGGGTKLTVLGQPKAAPSVTLFPPSSEELQANKATLVCLISDFYPGAVTVAWKADSSPVKAGVETTTPSKQSNNKYAASSYLSLTPEQWKSHRSYSCQVTHEGSTVEKTVAPTECS
heavy: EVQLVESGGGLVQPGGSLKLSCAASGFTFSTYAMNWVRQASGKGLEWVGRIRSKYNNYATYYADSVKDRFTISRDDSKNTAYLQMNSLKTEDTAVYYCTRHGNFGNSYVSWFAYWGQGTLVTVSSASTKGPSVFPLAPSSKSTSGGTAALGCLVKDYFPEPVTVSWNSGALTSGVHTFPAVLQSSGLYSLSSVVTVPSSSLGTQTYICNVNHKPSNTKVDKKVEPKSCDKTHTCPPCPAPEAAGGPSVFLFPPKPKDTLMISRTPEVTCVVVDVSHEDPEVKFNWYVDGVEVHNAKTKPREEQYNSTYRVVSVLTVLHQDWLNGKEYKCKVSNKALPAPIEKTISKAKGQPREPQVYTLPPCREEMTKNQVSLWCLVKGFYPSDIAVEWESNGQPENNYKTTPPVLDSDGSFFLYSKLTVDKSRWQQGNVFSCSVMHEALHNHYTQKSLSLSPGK
chain: EVQLVETGGGLIQPGGSLRLSCAASGFTVSDSYMTWVRQAPGKGLEWVSVIFSGGRTYYSDSVKGRFTISRDNAKNTLYLQMNSLRAEDTALYYCARRNYDDTRGTDVFDIWGQGTMVTVSSASEPKSSDKTHTCPPCPAPEAAGGPSVFLFPPKPKDTLMISRTPEVTCVVVDVSHEDPEVKFNWYVDGVEVHNAKTKPREEQYNSTYRVVSVLTVLHQDWLNGKEYKCKVSNKALPAPIEKTISKAKGQPREPQVCTLPPSREEMTKNQVSLSCAVKGFYPSDIAVEWESNGQPENNYKTTPPVLDSDGSFFLVSKLTVDKSRWQQGNVFSCSVMHEALHNHYTQKSLSLSPGK
notes: BCMAxCD3, Fab-Fc-VH (structure 11); CD3 Fab of PR003886, BCMA VH of PR004566; IgG1 knob/hole, LALA
B8: PR001991 (bispecific antibody, human IgG1, kappa, L234A L235A)
chain 1: EVQLLESGGGLVQPGGSLRLSCAASGFTFNTYAMNWVRQAPGKGLEWVSRIRSKYNNYATYYADSVKDRFTISRDDSKSTLYLQMNSLRAEDTAVYYCVRHGNFGNSYVSWFAYWGQGTLVTVSSRTVAAPSVFIFPPSDEQLKSGTASVVCLLNNFYPREAKVQWKVDNALQSGNSQESVTEQDSKDSTYSLSSTLTLSKADYEKHKVYACEVTHQGLSSPVTKSFNRGEC
chain 2: QAVVTQEPSLTVSPGGTVTLTCRSSTGAVTTSNYANWVQQKPGQAPRGLIGGTNKRAPWTPARFSGSLLGDKAALTLLGAQPEDEAEYFCALWYSNLWVFGGGTKLTVLSSASTKGPSVFPLAPSSKSTSGGTAALGCLVKDYFPEPVTVSWNSGALTSGVHTFPAVLQSSGLYSLSSVVTVPSSSLGTQTYICNVNHKPSNTKVDKKVEPKSCDKTHTCPPCPAPEAAGGPSVFLFPPKPKDTLMISRTPEVTCVVVDVSHEDPEVKFNWYVDGVEVHNAKTKPREEQYNSTYRVVSVLTVLHQDWLNGKEYKCKVSNKALGAPIEKTISKAKGQPREPQVYTLPPCREEMTKNQVSLWCLVKGFYPSDIAVEWESNGQPENNYKTTPPVLDSDGSFFLYSKLTVDKSRWQQGNVFSCSVMHEALHNHYTQKSLSLSPGK
chain 3: EVQLLESGGGLVQPGGSLRLSCAASGFTFSSYAMIWVRQAPGKGLEWVSGISESGGSTYYADSVKGRFTISRDNSKNTLYLQMNSLRAEDTAVYFCVKDLDDILTGYYKDYWGQGTLVTVSSASEPKSSDKTHTCPPCPAPEAAGGPSVFLFPPKPKDTLMISRTPEVTCVVVDVSHEDPEVKFNWYVDGVEVHNAKTKPREEQYNSTYRVVSVLTVLHQDWLNGKEYKCKVSNKALGAPIEKTISKAKGQPREPQVCTLPPSREEMTKNQVSLSCAVKGFYPSDIAVEWESNGQPENNYKTTPPVLDSDGSFFLVSKLTVDKSRWQQGNVFSCSVMHEALHNHYTQKSLSLSPGK
notes: CD3 of PR000511, BCMA VH of PR000940; IgG1 knob/hole, AAG

This assay addresses T1, human BCMA (human, UniProt Q02223 1-184).
T1 construct: whole, on cells; also called hBCMA; TNFRSF17
T1 sequence (looked up): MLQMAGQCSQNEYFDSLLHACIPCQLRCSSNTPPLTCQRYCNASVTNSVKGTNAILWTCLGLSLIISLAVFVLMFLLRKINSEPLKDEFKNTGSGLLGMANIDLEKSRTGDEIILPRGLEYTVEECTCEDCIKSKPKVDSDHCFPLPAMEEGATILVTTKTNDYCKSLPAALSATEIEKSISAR
Put plainly: FACS on NCI-H929 cells.
Turning to B1, the EC50 turned out to be 4.6 nM and the “Maximum MFI” value came to 8590.
On to B2, for which the EC50 stood at 1.5 nM and the “Maximum MFI” value came to 9240.
Take B3: the EC50 was found to be 1.2 nM and the “Maximum MFI” value was found to be 9840.
In the same order, the values of B4 are 2.6 nM and 10300.
As for B5, the EC50 turned out to be 1.7 nM and the “Maximum MFI” value was determined as 11100.
With B6, the midpoint of the response, the EC50, lay at 1.3 nM and the “Maximum MFI” value was 10200.
Regarding B7, it took 2 nM to reach a half-maximal effect (EC50) and the “Maximum MFI” value was 10600.
With B8, the “Maximum MFI” value stood at 1980.
